According to publication doi:10.1101/2022.11.30.518474 (bioRxiv, 2022):

Target: the molecule itself
Assay: SEC; purified recombinant protein (40 μg in 50 μl) on a TOSOH G2000 SWXL column in hexokinase buffer (20 mM HEPES, 5 mM Mg acetate, 100 mM NaCl, 0.5 mM EDTA, 0.5 mM DTT) without glucose, no ATP, 1 mL/min

B1: Recombinant Hxk2, wild type, C-terminal 6-histidine tag, from E. coli (enzyme, S. cerevisiae, UniProt P04807 1-486, looked up)
chain: MVHLGPKKPQARKGSMADVPKELMQQIENFEKIFTVPTETLQAVTKHFISELEKGLSKKGGNIPMIPGWVMDFPTGKESGDFLAIDLGGTNLRVVLVKLGGDRTFDTTQSKYRLPDAMRTTQNPDELWEFIADSLKAFIDEQFPQGISEPIPLGFTFSFPASQNKINEGILQRWTKGFDIPNIENHDVVPMLQKQITKRNIPIEVVALINDTTGTLVASYYTDPETKMGVIFGTGVNGAYYDVCSDIEKLQGKLSDDIPPSAPMAINCEYGSFDNEHVVLPRTKYDITIDEESPRPGQQTFEKMSSGYYLGEILRLALMDMYKQGFIFKNQDLSKFDKPFVMDTSYPARIEEDPFENLEDTDDLFQNEFGINTTVQERKLIRRLSELIGARAARLSVCGIAAICQKRGYKTGHIAADGSVYNRYPGFKEKAANALKDIYGWTQTSLDDYPIKIVPAEDGSGAGAAVIAALAQKRIAEGKSVGIIGA
notes: Hexokinase 2 (Hxk2) of S. cerevisiae; also called WT Hxk2; wild-type Hxk2; source: E. coli (pET14b), purified (Ni-NTA)
stoichiometry N: 2
